Laboratory results as given in IntAct's records for PubMed 31435016.

B1: Isoform 2 of ATP-binding cassette sub-family B member 8, mitochondrial (Homo sapiens), Q9NUT2-2 (parent)
chain: MLVHLFRVGIRGGPFPGRLLPPLRFQTFSAVRYSDGYRSSSLLRAVAHLRSQLWAHLPRAPLAPRWSPSAWCWVGGALLGPMVLSKHPHLCLVALCEAEEAPPASSTPHVVGSRFNWKLFWQFLHPHLLVLGVAVVLALGAALVNVQIPLLLGQLVEVVAKYTRDHVGSFMTESQNLSTHLLILYGVQGLLTFGYLVLLSHVGERMAVDMRRALFSSLLRQDITFFDANKTGQLVSRLTTDVQEFKSSFKLVISQGLRSCTQVAGCLVSLSMLSTRLTLLLMVATPALMGVGTLMGSGLRKLSRQCQEQIARAMGVADEALGNVRTVRAFAMEQREEERYGAELEACRCRAEELGRGIALFQGLSNIAFNCMVLGTLFIGGSLVAGQQLTGGDLMSFLVASQTVQRSMANLSVLFGQVVRGLSAGARVFEYMALNPCIPLSGGCCVPKEQLRGSVTFQNVCFSYPCRPGFEVLKDFTLTLPPGKIVALVGQSGGGKTTVASLLERFYDPTAGVVMLDGRDLRTLDPSWLRGQVVGFISQEPVLFGTTIMENIRFGKLEASDEEVYTAAREANAHEFITSFPEGYNTVVGERGTTLSGGQKQRLAIARALIKQPTVLILDEATSALDAESERVVQEALDRASAGRTVLVIAHRLSTVRGAHCIVVMADGRVWEAGTHEELLKKGGLYAELIRRQALDAPRTAAPPPKKPEGPRSHQHKS
partner: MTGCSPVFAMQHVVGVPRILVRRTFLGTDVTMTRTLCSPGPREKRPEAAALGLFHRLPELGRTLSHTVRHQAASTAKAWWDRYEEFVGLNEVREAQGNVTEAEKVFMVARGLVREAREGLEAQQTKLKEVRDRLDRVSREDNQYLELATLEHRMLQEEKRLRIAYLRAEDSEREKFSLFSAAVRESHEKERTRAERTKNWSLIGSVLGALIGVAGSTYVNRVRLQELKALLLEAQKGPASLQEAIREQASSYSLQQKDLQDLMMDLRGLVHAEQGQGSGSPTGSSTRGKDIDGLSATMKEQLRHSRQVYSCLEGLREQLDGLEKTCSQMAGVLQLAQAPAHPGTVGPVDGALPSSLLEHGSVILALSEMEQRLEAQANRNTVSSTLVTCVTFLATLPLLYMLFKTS

Variants of: B1
Conditions: with Ccdc51, Q3URS9-1

Row | effect of a mutation on the interaction | Variant
1 | with no effect | K496A
